Assay [1] relates to regenerated adipocytes in wounds. The assay can be described thus: Adipocyte regeneration in large excisional skin wounds (adipocyte/hair follicle index, Oil Red O). It counts as in vivo, mouse. Conditions: for Adipocyte/hair index (new adipocyte/follicle ratio): WT mice treated during wound healing, post-wounding Day 28; for regeneration of new adipocytes in hair-bearing wounds: treatment during wound healing (2 mg/kg), hair follicles regenerate normally. As for the experimental part: (§1) All animal experiments were carried out in accordance to with the guidelines of the IACUC of the University of Pennsylvania and the University of California, Irvine. Full thickness 1.5×1.5 cm (2.25 cm^2) excisional wounds were inflicted on the backs of three to eight week-old mice as described in M. Ito et al., Nature 447:316 (2007).
Whole mount wounds were stained for Oil Red O and the number of regenerated hair follicles was counted from the skin surface, where each new hair is clearly visible. The number of new adipocytes was counted from the underside, where each adipocyte is clearly visible due to their very large size and prominent marking by Oil Red O dye. For each experiment, adipose tissue regeneration was quantified as the ratio of all new adipocytes/all new hair follicles (aka adipocyte/hair follicle index). Some wound samples (FIG. 2B) were stained for lacZ and photographed, then additionally stained for Oil Red O and photographed again. Adipocytes were then micro-dissected and photographed under stereomicroscope.

Another assay relates to Zfp423. The assay can be described thus: Zfp423 reporter (lacZ) activity in wounds of Zfp423-lacZ mice. It counts as in vivo, mouse. The following applies: 2 mg/kg during wound healing, day 21. As for the experimental part:
FIG. 25: BMP signaling is necessary for Zfp423 reporter activation in wounds. […] Asterisk marks lacZ-positive dermal papillae of new hair follicles. Size bars: 100 μm.
as §1

In assay [2] the test system is mouse dermal cells isolated from day 15 wounds. Put plainly: Primary mouse adipogenic cell culture. The following applies: 6 ng/ml hBMP4 or 25 ng/ml hBMP2 with differentiation media. Type of assay: cell-based. As for the experimental part: Primary scar cells were isolated from day 15 wounds as described in D. Gay et al., Nature medicine 19:916 (2013) with minor modifications. Single cell fractions were created and cultured to confluence in high-glucose to DMEM (Gibco) supplemented with 10% FBS (Atlanta Biologicals) and […] Pen/Strep cocktail (Gibco). […] After three days, cells differentiation media was switched to adipocyte maintenance media (Cell Solutions). Cells were cultured in a water-jacketed incubator at 37° C. with 5% CO2 output
(§2) Total RNA was isolated using Trizol reagent (Thermo) or RNEasy Micro-Kit (Qiagen) as per manufacturer's protocol with minor modifications. Total RNA was reverse-transcribed and cDNA was amplified using PCR primers described in J. Ishibashi et al., Mol Cell Biol 32:2289 (2012). See Tables 3 and 4 for the sequences of primers used.

The subject of the next assay is human keloid scar cells. Put plainly: Primary human adipogenic cell culture, keloid scar cells. It counts as cell-based. The following applies: 20 ng/ml hBMP4 for 48 hours, then adipogenic cocktail; for adipogenic conversion of keloid scar cells (Oil Red O positive adipocytes): n=3. As for the experimental part: (§3) All human experiments were carried out in accordance with the guidelines of the IRB of the University of California, Irvine, Children's Hospital Los Angeles and Kyungpook National University. Keloid fibroblasts were isolated as described in Y. S. Lee et al., Wound repair and regeneration: official publication of the Wound Healing Society [and] the European Tissue Repair Society 24:302 (2016). Human hypertrophic scar myofibroblasts were derived from clinical specimen biopsies and expanded in vitro as described in M. Vangipuram et al., Journal of visualized experiments: JoVE, e3779 (2013).
Primary human scar cells were cultured in DMEM/F12 media (Gibco) supplemented with 10% FBS (Fisher Scientific). Upon confluency, cells were switched to serum free DMEM/F12 media and treated with 20 ng/ml recombinant hBMP4 protein (R&D Systems) for 48 hours before differentiation. For the hair follicle co-culture, cells were grown in 12-well trans-well plates. Once near confluency, medium was changed to William's E hair follicle organ culture medium, and 40 microdissected human scalp anagen hair follicles were co-cultured on top of the membrane insert in each well for 5 days. Control cells were cultured in William's E medium without hair follicles. In all cases, adipogenic differentiation was induced by adding adipogenic cocktail: DMEM/F12 media supplemented with 1% ITS premix (insulin-transferrin-selenium; BD Biosciences), 0.5 mM isobutylmethylxanthine (Sigma), 0.1 μM cortisol (Sigma), 1 μM dexamethasome (Sigma), 0.2 nM triiodothyronine (Sigma), and 1 μM rosiglitazone (Cayman Chemical). After 4 days of induction, cells were changed to maintenance media: DMEM/F12 media supplemented with 1% ITS premix (BD Biosciences), 0.1 μM cortisol (Sigma), and 0.2 nM triiodothyronine (Sigma). For the hair follicle co-culture, cells were maintained in the induction media for 7 days. Lipid droplets were visualized after 7 days and cells were harvested for RNA isolation on day 10.
as §2

Assay [3] concerns human hypertrophic scar fibroblasts. The assay can be described thus: Primary human adipogenic cell culture, hypertrophic scar fibroblasts. It counts as cell-based. The following applies: n=3. As for the experimental part:
as §3
Primary human scar cells were cultured in DMEM/F12 media (Gibco) supplemented with 10% FBS (Fisher Scientific). Upon confluency, cells were switched to serum free DMEM/F12 media and treated with 20 ng/ml recombinant hBMP4 protein (R&D Systems) for 48 hours before differentiation. For the hair follicle co-culture, cells were grown in 12-well trans-well plates. Once near confluency, medium was changed to William's E hair follicle organ culture medium, and 40 microdissected human scalp anagen hair follicles were co-cultured on top of the membrane insert in each well for 5 days. Control cells were cultured in William's E medium without hair follicles. […]

Where [4] appears, read: listed as small-molecule inhibitor of SMAD1/5/8 phosphorylation.

Entries after “also recorded” stand apart in the source; their conditions may differ.

For the molecule `c1ccc2c(-c3cnn4cc(-c5ccc(N6CCNCC6)cc5)cnc34)ccnc2c1` [LDN-193189], the “Adipocyte/hair index (new adipocyte/follicle ratio)” value is 0.58 ± 0.35 in assay [1] and 0.58+/−0.35 in assay [1] (setting [4]). Moreover, the “regeneration of new adipocytes in hair-bearing wounds” value is given as “near complete loss of regenerated adipocytes” in assay [1] and “largely prevented new adipocyte regeneration” in assay [1] (setting [4]). The “Zfp423 activity (reporter) in dermal cells surrounding new hair follicles and in blood vessels” value is reported as “significantly downregulated” with Zfp423 and “downregulated” in the assay on Zfp423 (setting [4]).

B1: BMP4: human recombinant bone morphogenetic protein 4 (R&D Systems) (protein, UniProt P12644 293-408, looked up)
Bone morphogenetic protein 4: SPKHHSQRARKKNKNCRRHSLYVDFSDVGWNDWIVAPPGYQAFYCHGDCPFPLADHLNSTNHAIVQTLVNSVNSSIPKACCVPTELSAISMLYLDEYDKVVLKNYQEMVVEGCGCR
Turning to B1, the “activation of adipocyte-specific genes (qRT-PCR)” value in assay [2] is reported as “activation of adipocyte-specific genes”. Moreover, the “reprogramming of cultured mouse dermal cells into adipocytes” value in assay [2] (without BMP non-adipogenic) is “induced their reprogramming into adipocytes”. For the same molecule, the results for the “expression of adipogenic genes ZNF423, ADIPOQ, ADIPOSIN, PPARG2, FABP4 (qRT-PCR)” value with human keloid scar cells and with human keloid scar cells (listed as hBMP4) were “expression of adipocyte markers; also recorded: activation of adipocyte-specific genes” and “upregulation of adipogenic genes”, respectively. The “adipogenic conversion of keloid scar cells (Oil Red O positive adipocytes)” value is reported as “induced their conversion to lipid-laden adipocytes; also recorded: induced their reprogramming into adipocytes” in the assay with human keloid scar cells and “consistently induced adipogenic conversion” in the assay on human keloid scar cells (listed as hBMP4). Also, the “qRT-PCR against select adipogenic genes” value in assay [3] (following hBMP4 treatment) was “only ADIPISIN becomes significantly upregulated”. Besides, the “adipogenic potential of hypertrophic scar fibroblasts (Oil Red O)” value in assay [3] (hBMP4 for 48 hours prior to differentiation, vs non-hBMP4 control) is on record as “does not induce an increase in adipogenic potential”.

For the origin of these results see patent US12214014B2, “Methods for scar reduction by converting scar fibroblasts into adipocytes with hair follicle-derived signals” (The Trustees of the University of Pennsylvania, priority 2017, dated 2025).
